For the data set the following is noted: Homo sapiens, pH 3, Thermal, DSC, glycine-HCl 0.05 M, reversible: yes, whole UniProt chain shown.

B1: Lysozyme C wild type, P61626 (protein)
chain: MKALIVLGLVLLSVTVQGKVFERCELARTLKRLGMDGYRGISLANWMCLAKWESGYNTRATNYNAGDRSTDYGIFQINSRYWCNDGKTPGAVNACHLSCSALLQDNIADAVACAKRVVRDPQGIRAWVAWRNRCQNRDVRQYVQGCGV
The term Tm denotes the temperature at which the thermal transition is half complete. On to B1, for which the Tm was 71.4 °C. In addition, where the note is “57 °C”, the “heat capacity change of unfolding” value came out at 1.55 kcal/mol/K, the “unfolding enthalpy (calorimetric)” value was determined as 101 kcal/mol and the unfolding free energy came to 4.6 kcal/mol.

The record behind these values is FireProtDB (doi:10.1021/bi00150a028).
